Article PMC7565926, “Oncogenic Orphan Nuclear Receptor NR4A3 Interacts and Cooperates with MYB in Acinic Cell Carcinoma” (Cancers, 2020)

Biological target: HA-tagged NR4A3 (UniProt Q92570 1-626)
Test: cell-based or functional assay

Chain of HA-tagged NR4A3 (Q92570 whole entry): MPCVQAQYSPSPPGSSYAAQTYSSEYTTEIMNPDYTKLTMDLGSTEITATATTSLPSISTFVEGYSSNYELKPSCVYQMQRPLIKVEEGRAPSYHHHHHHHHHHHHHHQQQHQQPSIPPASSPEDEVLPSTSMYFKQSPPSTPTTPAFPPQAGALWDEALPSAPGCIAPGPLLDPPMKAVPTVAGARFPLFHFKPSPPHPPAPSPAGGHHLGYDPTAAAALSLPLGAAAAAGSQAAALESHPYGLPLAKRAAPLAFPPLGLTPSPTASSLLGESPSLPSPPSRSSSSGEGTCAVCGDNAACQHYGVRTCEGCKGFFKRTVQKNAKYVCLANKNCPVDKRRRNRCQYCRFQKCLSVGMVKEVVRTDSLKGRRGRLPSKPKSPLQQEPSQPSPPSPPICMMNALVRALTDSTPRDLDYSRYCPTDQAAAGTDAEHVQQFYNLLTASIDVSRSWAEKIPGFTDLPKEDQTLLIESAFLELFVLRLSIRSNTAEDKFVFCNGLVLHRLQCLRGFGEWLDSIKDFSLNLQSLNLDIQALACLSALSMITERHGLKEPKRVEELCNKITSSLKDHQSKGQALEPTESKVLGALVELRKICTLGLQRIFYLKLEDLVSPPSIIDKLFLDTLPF

B1: Myb (natural protein)
chain: not shown
**Q.** Which “activation of the NurRE luciferase reporter in HeLa cells on co-expression of full-length Myb with NR4A3 (NR4A3 by itself 6-fold)” value does the source give for B1 here?
**A.** 27 fold
